# Test: Thermostability of NTR and mutants (3H-neurotensin binding)
# Type: physicochemical
# Details: heated in the absence of the agonist
# Description: FIG. 12 Flow chart showing the two different assay formats of ligand (+) and ligand (−) used to determine receptor thermostability.
# • 1. 340 site-directed mutants have been made between residues 61-400 of NTR. • 2. Initially, all of these mutants were assayed for thermostability using an assay measuring ^3H-neurotensin (agonist) binding after the heating step. […] Mutants tested for thermostability by heating in the absence of the agonist were re-tested using a slightly different assay where the mutants were heated in the presence of ^3H-neurotensin (Ligand(+) format in FIG. 12). […] All of these also have increased thermostability. • 5. Preferred combinations are • a. Nag7m F358A+A86L+I260A+F342A Tm 51° C. (neurotensin bound) • b. Nag7n F358A+H103A+I260A+F342A Tm 51° C. (neurotensin bound) • Wildtype NTR has a Tm of 35° C. with neurotensin bound.
row,Molecule,"thermostability, 3H-neurotensin (agonist) binding after the heating step"
1,"L205A: NTR point mutant (protein, UniProt P20789 1-424, looked up, variant L205A) Neurotensin receptor type 1: MHLNSSVPQGTPGEPDAQPFSGPQSEMEATFLALSLSNGSGNTSESDTAGPNSDLDVNTDIYSKVLVTAIYLALFVVGTVGNSVTAFTLARKKSLQSLQSTVHYHLGSLALSDLLILLLAMPVELYNFIWVHHPWAFGDAGCRGYYFLRDACTYATALNVASLSVERYLAICHPFKAKTLMSRSRTKKFISAIWLASALLAIPMAFTMGLQNRSGDGTHPGGLVCTPIVDTATVKVVIQVNTFMSFLFPMLVISILNTVIANKLTVMVHQAAEQGRVCTVGTHNGLEHSTFNMTIEPGRVQALRHGVLVLRAVVIAFVVCWLPYHVRRLMFCYISDEQWTTFLFDFYHYFYMLTNALFYVSSAINPILYNLVSANFRQVFLSTLACLCPGWRHRRKKRPTFSRKPNSMSSNHAFSTSATRETLY",small but significant increase in thermostability
2,"P399A: NTR point mutant (protein, UniProt P20789 1-424, looked up, variant P399A) Neurotensin receptor type 1: MHLNSSVPQGTPGEPDAQPFSGPQSEMEATFLALSLSNGSGNTSESDTAGPNSDLDVNTDIYSKVLVTAIYLALFVVGTVGNSVTAFTLARKKSLQSLQSTVHYHLGSLALSDLLILLLAMPVELYNFIWVHHPWAFGDAGCRGYYFLRDACTYATALNVASLSVERYLAICHPFKAKTLMSRSRTKKFISAIWLASALLAIPMLFTMGLQNRSGDGTHPGGLVCTPIVDTATVKVVIQVNTFMSFLFPMLVISILNTVIANKLTVMVHQAAEQGRVCTVGTHNGLEHSTFNMTIEPGRVQALRHGVLVLRAVVIAFVVCWLPYHVRRLMFCYISDEQWTTFLFDFYHYFYMLTNALFYVSSAINPILYNLVSANFRQVFLSTLACLCPGWRHRRKKRATFSRKPNSMSSNHAFSTSATRETLY",small but significant increase in thermostability
3,"L72A: NTR point mutant (protein, UniProt P20789 1-424, looked up, variant L72A) Neurotensin receptor type 1: MHLNSSVPQGTPGEPDAQPFSGPQSEMEATFLALSLSNGSGNTSESDTAGPNSDLDVNTDIYSKVLVTAIYAALFVVGTVGNSVTAFTLARKKSLQSLQSTVHYHLGSLALSDLLILLLAMPVELYNFIWVHHPWAFGDAGCRGYYFLRDACTYATALNVASLSVERYLAICHPFKAKTLMSRSRTKKFISAIWLASALLAIPMLFTMGLQNRSGDGTHPGGLVCTPIVDTATVKVVIQVNTFMSFLFPMLVISILNTVIANKLTVMVHQAAEQGRVCTVGTHNGLEHSTFNMTIEPGRVQALRHGVLVLRAVVIAFVVCWLPYHVRRLMFCYISDEQWTTFLFDFYHYFYMLTNALFYVSSAINPILYNLVSANFRQVFLSTLACLCPGWRHRRKKRPTFSRKPNSMSSNHAFSTSATRETLY",small but significant increase in thermostability
4,"A120L: NTR point mutant (protein, UniProt P20789 1-424, looked up, variant A120L) Neurotensin receptor type 1: MHLNSSVPQGTPGEPDAQPFSGPQSEMEATFLALSLSNGSGNTSESDTAGPNSDLDVNTDIYSKVLVTAIYLALFVVGTVGNSVTAFTLARKKSLQSLQSTVHYHLGSLALSDLLILLLLMPVELYNFIWVHHPWAFGDAGCRGYYFLRDACTYATALNVASLSVERYLAICHPFKAKTLMSRSRTKKFISAIWLASALLAIPMLFTMGLQNRSGDGTHPGGLVCTPIVDTATVKVVIQVNTFMSFLFPMLVISILNTVIANKLTVMVHQAAEQGRVCTVGTHNGLEHSTFNMTIEPGRVQALRHGVLVLRAVVIAFVVCWLPYHVRRLMFCYISDEQWTTFLFDFYHYFYMLTNALFYVSSAINPILYNLVSANFRQVFLSTLACLCPGWRHRRKKRPTFSRKPNSMSSNHAFSTSATRETLY",small but significant increase in thermostability
